In the nanobody polyreactivity screen of Harvey et al. (2022):

Experiment: yeast display, Sf9 membrane polyspecificity reagent, FACS + sequencing; frameworks hold sequencing errors
How it was run: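 Nanobodies came from a synthetic yeast display library in Saccharomyces cerevisiae BJ5465, induced with galactose for 36–48 hours and stained for 1 hour at 4 °C with 10% biotinylated, detergent-solubilized Sf9 membrane reagent. Cells were enriched on streptavidin microbeads and then FACS-sorted, with low and high (top ~1%) gates set on anti-HA fluorescence for expression and streptavidin fluorescence for reagent binding. Each polyreactivity label reflects the gate a clone came from. Genes were amplified by colony PCR, sequenced by MiSeq 2 × 250 and filtered by CDR length.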

Sequence	polyreactivity (PSR sort gate)
QVQLVESGGGLVQAGGSLRLSCAASGSSFRGYAMGWSRQAPGKERELVAAISRSGGSTYYADSVKGRFTISRDNAKNTVYLQMKSLKPEDTAVYYCNARCSKRSSRGYDYWGQGTQVTVSS	high polyreactivity
QVQLVESGGGLVQAGGSLRVSCAASGNIFYYYAKGWSRQAPGKERELDAAISKRGGSTYYADSVKGRFTISRDIAKNTVYLQMNSLKTEVTAVYYCAADGGYADYDYWGQGTQVTVSS	high polyreactivity
QVQLVESGGGLVQAGGSLRLSCAASGSIFGINAMGWYRQAPGKERELVAAISGSTSRTYYADSVKGRFTISRDNAKNTVYLQMNSLKPEDTAVYYCAVVGLRSVTRRSYYWGQGTQVTVSS	high polyreactivity
QGQLVESGVGLVQAGGSLRLSCAASGLTFSWYAMGWYRQAPGKERELVAVITTSGGSTYYSDSVKGRFTISRDNAKNTVYLQMNSLKPEDTAVYYCAVGVPSWEFDYWGQGTHVTVSS	low polyreactivity
QVQLVESGGRLVQAGGSLRLSCAASGRIFRRNAMGWYRQAPGKERELVAAISSSGGRTYYADSVKGRFTISRDNAKNTVYLQMNSLKPEDTAVYYCATRESLEPGYYWGQGTQVTVSS	high polyreactivity
QVQLVESGGGLVQAGGSLRLSCAASGFTLPANGMGWYRQAPGKERQLVAAISFIAGSTYYADSVKGRFTISRDNAKNTVYLQMKSLKPEDTAVYYCATQFPPSTFYDYWGQGTQVTVSS	low polyreactivity
QVQLVESGGGLVQAGGSLRLSCAASGSISQTYAMGWYRQAPGKERELVAAISSSGASTYYADSVKGRFTISRDNAKNTVYLQMNCLKPEDTAVYYCAALGRYRYIYNYWGQGTQVTVSS	high polyreactivity
QVQLVESGGGSVQAGGSLRLSCAASGSIYYYAMGWYIQAPGKERELVAAISRSGGSTYYADSVKGRFTISRDNAKNTVYLQMNCLKPEDTAVYYCAKGYRGYSYGYCGQGTQVTVSS	high polyreactivity
QDQLVESGGGLVQAGGSLRLSCAASGRTFYIYAMGWYRQATGKERELVAAISSYTSTKYADSVKGRFTISRDNAKNTVYLQMICLKPEDTAVYYCASGYPVRYRGYLNWSYYAYDYWGQGTQVTVSS	low polyreactivity
QVQLVESGGGLVQAGGSLRLSCAASGRIFDYYAMGWNRQAPGKERELVAAITWSGGNTYYADSVKGRFTISRDNAKNTVYLQMNSLKPEDTAVYYCAAEYYYLNDIYSEYDYWGQGTQVTVSS	high polyreactivity
QVQLVESGGGLVQAGGSLRLSCAASGRTFAWYAMGWYRQAPGKERELVAAISNVGSTYYADSVKGRFTISRDNAKNTVYLHMNSLKPEHTAVYYCNADAVSTDGREYWGQGTQVTVSS	low polyreactivity
QVQLVESGGGLVQAGGSLRLSCAASGRIFWRNAMGWYRQAPGKERELVAAISSGGSTYYADSVKGRFTISRDNAKNTVYFQMNSLKPEDTAVYYCAARSSWRGVRYDHFERDYWGQGTQVTVSS	high polyreactivity
QVQLVESGGGLVQAGGSLRLSCAASGSIFEYNGMGWYRQAPGKERELVAAITTTGTTDYADSVKGRFTISRDNAKNTVYLQMNSLKPEDTAVYYCAADYTYYYKGEYDYWGQGTQVTVSS	low polyreactivity
QVQLVESGGGLVQAGGSLRLSCAASGFTFRVYAMGWYRQAPGKERELVAAISSGGSTNYADSVKGRFTISRDNAKNTVYLQMNSLKPEDTAVYYCAARTYRWYGPGSYGYWGQGTQVTVSS	high polyreactivity
QVQLVDSGGALVQAGGSLRLSCAASGRTFRPNAMGWYRQAPGKERELVAVISWRGGRTYYADYVKGRFTISRDIAKNTVYLQMNSLKPEDTAVYYCGARVYLSGYGYNYWGQGTHVTVSS	high polyreactivity
QVQLVESVGGLVQAGGSLRLSCASSGITFWYYAMGWYRQAPGKERELVAAISYSGDSTYYADSVKGRFTISRDNAKNTVYLQMNSLKPEDTAVYYCAARTRAGAWTSKYHDYWGQGTQGTVSS	high polyreactivity
QVQLVESGGGLVQAGGSLRLICAASGRIFTAYVMGWYRQAPGKERQLVAAITEGGGNTYYADSVKGRFTISRDNAKNTVYLQMNSLKPEDTAVYYCAARYLVNGRKRLYYWGQGTQVTVSS	high polyreactivity
QVQLEESGGGLVQAGGSLRLSCAASGRTFVPYVMGWYRQAPGKEMELVATINWSGGSTYYADSVKGRFTISRDNAKNTVYLQMNSLKPEDTADYYCAARYYSDWFYYLFRYDYWGQGTQVTVSS	low polyreactivity
QVQLVESGGGLVQAGGSLRLSCAAYGSTFNGNAMGWYRQAPGKERELVARISFDGTSTYYADSVKGRFTISRDNAKNTVYLQMNSLKPEDTAVYYCNVMFPRDHGFPGYGYWGQGTQVTVSS	low polyreactivity
QVQLVESGGGLVQAGGSLRLSCAASGSSFWYNAMGWYRQAPGKERELVATISSRGDGTYYADSVKGRFTISRDNAKNTVYLQMNSLKPEDTAVYYCNKYRQQGWEFDYWGQGTQVTVSS	high polyreactivity
QVQRVDSGGGLVQAGGSLRLSCAASGSTFPGYAMGWYRQAPGKERELVAAISKRGGSTRYADSVKGRFTISRDNAKNTVYLQMNSLKPEDTAVYYCAASYSYSGSGGGYWGQVTQVTVSS	high polyreactivity
QVQLVESGGGLVQAGGSLRLSCAASGSTFSVYGMGWYRQAPGKERELVAAITRGSRTYYADSVKGRFTISRDNAKNTVYLQMNSLKPEDTAVYYSAAKWWWRSYWGQGTQVTVSS	high polyreactivity

Sequence	polyreactivity (PSR sort gate)
QVQLVESGGGLVQAGGSLRLSCAASGSTSYNMGWYRQAPGKERELVAAISYRGGRTYYADSVKGRFTISRDNAKNTVYLQMNSLKPEDTAVYYCAKGIFDTFDSWGQGTQVTVSS	low polyreactivity
QVQLVESGGGLVQAGGSLRLSCAASGRIFGTYAMGWYRQAPGKERELVARITRIGTRTYYADSVKGRFTISRDNAKNTVYLQMNSLKPEDTAVDYCAAGHYSYWVNTVKRYNTGYDYWGQGTQVTVSS	high polyreactivity
QVQLVESGGGLVQAGGSLRLSCAASGSIFAPNAMGWYRQAPGKERELVARISRTGGSTNYADSVKGRFTISRDNAKNTVYLQMNSLKPEDTAVYYCNTQYSYSSAPPFWYTQMYYWGQGTQVTVSS	high polyreactivity
QLKLEESGGRLVQAGGSLRLSCASSGRTFTYYVMGCYRQAPGKERELVAAISDSGGSTYYADSVKGRFTISRDNAKNTVYLQMNSLKPEDTAVYYCATDSYWYRLREYNYWGQGTQVTVSS	high polyreactivity
QVQLVESGGGLVQAGGSLRLSCAASGSIFRPNALGWYRQAPGKERELVAAITWSGDSTYYADSVKGRFTISRDNAKNTVYLQINSLKPEDTAVYYCAVVSYKVTESGIRMYYWGQGTQVTVSS	low polyreactivity
QVQLVESGGGLVQAGGSLRLSCAASGIIFGRYAMGWYRQAPGKEREFVAAIRSRGGSTYYADSVKGRFTISRDNAKNTVYLQMNSLKPEDTAVYYCNAGHIYAGYRREYDYWGQGTQVTVSS	high polyreactivity
QVQLVESVGGLVQAGGSLRLSCAASGFTFFHYAMGWYRQAPGKERELVAAINTRGSRTYYADSVKGRFTISRDNAKNTVYLQMNSLKPEDTAVYYCAADSVQVYAWQYYYWGQGTQVTVSS	high polyreactivity
QVQLVESGGGLVQAGGSLRLSCAASGSTFYYAMGWYRQAPGKERELVASITFSTGSTYYADSVKGRFTISRDNAKNTVYLQMTSLKPEDTAVYYCATGVDTYSLTVEHDSWGQGTQVTVSS	low polyreactivity
QVQLVESGGGLVQAGGSLRLSCAASGRTFLTNAMGWYRQAPGKERELVAAITSSGGSTYYADSVKGRFTISRDNAKNTVYLLMNSLKPEDTAVYYCNKKSALYRRYDYWGQGTQVTVSS	low polyreactivity
QVQLVESGGGLVQAGGSLRLSCAASGFTFGRYAMGWYRQAPWKERELVADITWSGGSTYYADSVKGRFSISRDFAKNTVYLQMNSLKPEDTAVYYCNRLSKNREYDYWGQGTQVNVSS	high polyreactivity
QVHLVESGGGLVQAGCSLRLSCAASGSIFSYYAMGWYRQAPGKERELVAAISVSGGNYADSVKGRFTISRDNAKNTVYLQMNSLKPEDTAVYYCAALNVYGSADVTTLEMDYWGQGTQVTVSS	low polyreactivity
QVQLVESGGGLVQAGGSLRLSCAASGSTFGGNAMGWYRQAPGKERELVAAISSSGGSTYYADSVKGRFTISRDNAKNTVYLQMNSLKPEDTAVYYCAALYHWTYDYWGQGTQVTVSS	low polyreactivity
QVQLVESGGGLVQAGGSLRLSCAASGRTFSVNAMGWYRQAPGKERELVATISYRGGSTYYADSVKGRFTISRDNAKNTVYLQMNSLKPEDTAVYYCAAGWRYWGRIYRDYDSWGQGTQVTVSS	high polyreactivity
QVQLVESGGGLVQAGGSLRLSCAASGIIFSGYAMGWYRQAPGKERELVASIRSGSNTYYADSVKGRFTISRDNAKNTVYLQMNSLKPEDTAVYYCAARVVPATFRFIRYPHPYYYWGQGTQVTVSS	low polyreactivity
QVLLQESGGGLVQAGGSLRLSCAASGNIFSAGGMGWSRQAPVNERELVAGIGTGTSTNYADSVKGRFTISRDNSKNTVYLQMNSLTPEDTAVYYCAAAYYSGLSHWYWGQGTQVTVSS	low polyreactivity
QVQLVESGGGLVQAGGSFRLSCAASGGTVDTYVMGWYRQAPGKERELVAVITRGASTYYADSVKGRFTISRDNAKNTVYLQMNSLKPEDTAVYYCAAACYSPDYYRFWYSFDYWGQGTQVTVSS	low polyreactivity
QVQLVESGGGLVQAGGSLRLSCAASGRTFYSNAMGWYRPAPGKERELGATISSGGSTNYADSVKGRFTISRDTAKNTVYLQINSVKPADTAVYYCDTRPDRINDYWGQGTQVTVSS	low polyreactivity
QVQLVESGGGLFKAGGSLRLSCAASGSIFRYYTMGWYRQAPGKERELVAAINGSGGSTYYADSVKGRFTISRDNAKNTVYLQMNSLKPEDTAVYYCNRVTKEYGLRQYYYWGQGTQVTVSS	low polyreactivity
QVQLVESGGGLVQAGGSLRLSCAASGRIFAQYAMGWYRQAPGKERELVAGIDRRGGSTYYADSVKGRFTISRDNAKNTVYLQMNILKPEDTAVYYCAAYGTTGVYRGPGYDYWGQGTQVTVSS	low polyreactivity
QVQLVESGGGLFQAGGSLRLSCAASGLTFGGNAMGWYRHAPGKERELVAAISSGGSTNYADSVKGRFTISRDNAKNTVYLQMNSLKPEDTAVYYCAVEAWSVPPYDYWGQGTQVTVSS	low polyreactivity
QVQLVESGGGLVQAGGSLLLSCAASGITSYYYAMGGYRQAPGKERELVAAITRGGRTKYADSVKGRFTISRDNAKNTVYLQMNSLKPEDTAVYYCAADVWGQGTQVTVSS	high polyreactivity
